Laboratory results as given in article PMC11265280.

Target: MERS-CoV spike RBD (Middle East respiratory syndrome-related coronavirus) (UniProt K9N5Q8)
Test: not given
Conditions: cited from earlier work

Substance | Kd
DPP4 (from UniProt P27487) | 0.017 µM

Target: soluble porcine DPP4-IgG1 (porcine) (UniProt P22411)
Test: SPR; BIAcore X-100, CM5 chip, room temperature; soluble DPP4-IgG1 immobilised by amine coupling; S1-RBD injected at 0.125-4.0 µM in 0.01 M HEPES, 0.15 M NaCl, 0.5% surfactant P20, 3 mM EDTA, pH 7.4; reference cell with BSA; steady-state affinity model
Conditions: not given

Substance | Kd
monomeric PHEV S1-RBD (SPR analyte) (domain or fragment) | 0.175 µM

Target: soluble murine DPP4-IgG1 (murine) (UniProt P28843)
Test: as above
Conditions: not given

Substance | Kd
monomeric PHEV S1-RBD (SPR analyte) (domain or fragment) | 0.361 µM

Target: PHEV spike S1 receptor-binding domain, Fc-tagged
Test: co-immunoprecipitation, quantified band intensity
Conditions: 293T cells; n = 3; parent: est. 100; read off a plot

Substance | percent of parent (% of RBD binding)
porcine dipeptidyl peptidase 4, GFP-tagged (from UniProt P22411) L294T; I295T | 82
porcine dipeptidyl peptidase 4, GFP-tagged (from UniProt P22411) K267A | 84
porcine dipeptidyl peptidase 4, GFP-tagged (from UniProt P22411) N321Q | 170
murine dipeptidyl peptidase 4, GFP-tagged (from UniProt P28843) A294E; R295E | 95
porcine dipeptidyl peptidase 4, GFP-tagged (from UniProt P22411) L294E; I295E | 110
murine dipeptidyl peptidase 4, GFP-tagged (from UniProt P28843) N229Q | 350
murine dipeptidyl peptidase 4, GFP-tagged (from UniProt P28843) N321Q | 250
porcine dipeptidyl peptidase 4, GFP-tagged (from UniProt P22411) N229Q | 190
porcine dipeptidyl peptidase 4, GFP-tagged (from UniProt P22411) R336E | 120
porcine dipeptidyl peptidase 4, GFP-tagged (from UniProt P22411) Q344A | 130
murine dipeptidyl peptidase 4, GFP-tagged (from UniProt P28843) A294T; R295T | 100
murine dipeptidyl peptidase 4, GFP-tagged (from UniProt P28843) K267A | 110
murine dipeptidyl peptidase 4, GFP-tagged (from UniProt P28843) T336E | 100
porcine dipeptidyl peptidase 4, GFP-tagged (from UniProt P22411) R317A | 98
murine dipeptidyl peptidase 4, GFP-tagged (from UniProt P28843) R317A | 92
murine dipeptidyl peptidase 4, GFP-tagged (from UniProt P28843) Q344A | 120
